From US20140235820A1, “METHODS AND COMPOSITIONS FOR MODULATING THE Wnt PATHWAY” (Genentech, Inc., priority 2010, published 2014)
Numbering of substitutions follows the chain as printed. In names and notes the source's numbering stands. Values belong to the molecule of their own block, whether it stands above or below them.

What was measured:
[1] = biological target: T1, LRP6 E1E2 (Homo sapiens, UniProt O75581); test: Biolayer interferometry binding to LRP6 E1E2
T1 construct: construct E1E2-amino acids A20-E631 of LPR6; made in house; host or cells: Tni insect cells (baculovirus, secreted)
T1 sequence (O75581 20-631): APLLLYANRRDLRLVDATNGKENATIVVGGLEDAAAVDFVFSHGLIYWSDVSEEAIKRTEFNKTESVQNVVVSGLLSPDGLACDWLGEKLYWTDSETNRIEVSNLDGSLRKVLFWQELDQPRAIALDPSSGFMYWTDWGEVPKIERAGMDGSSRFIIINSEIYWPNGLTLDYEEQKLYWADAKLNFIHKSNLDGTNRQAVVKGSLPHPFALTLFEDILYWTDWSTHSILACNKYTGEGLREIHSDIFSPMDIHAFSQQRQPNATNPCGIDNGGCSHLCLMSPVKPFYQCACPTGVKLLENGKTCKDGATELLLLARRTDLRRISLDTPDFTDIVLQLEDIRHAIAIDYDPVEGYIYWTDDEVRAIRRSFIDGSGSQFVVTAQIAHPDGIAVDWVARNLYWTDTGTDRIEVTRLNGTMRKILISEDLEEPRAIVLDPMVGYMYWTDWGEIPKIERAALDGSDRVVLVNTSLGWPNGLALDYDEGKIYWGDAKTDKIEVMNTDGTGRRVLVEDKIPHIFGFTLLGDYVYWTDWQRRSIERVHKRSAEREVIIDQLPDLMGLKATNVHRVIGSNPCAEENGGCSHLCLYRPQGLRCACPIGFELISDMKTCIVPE
Experimental: Binding kinetics were measured by biolayer interferometry using an Octet Red instrument (ForteBio) as previously described (11). Streptavidin (SA) biosensors were loaded with biotinylated hLRP6 in 50 mMTris, pH 8, 300 mM NaCl, 5% (v/v) glycerol, and 0.05% (w/v) Triton X-100. The loaded biosensors were washed in the same buffer before carrying out association and dissociation measurements for the indicated times. The Kd of each interaction was determined using steady state-analysis through the Octet Red software v6.3. Each reported value represents an average of three or more experiments at different concentrations, with a fitted experimental curve for which the square of the correlation coefficient (R^2) is above 0.96.
The interaction of the different Dkks and sclerostin with various domains of LRP6 was measured using a biolayer interferometry assay (11). Purified receptors contained individual β-propeller-EGF-like units (E1, E2, or E4), two β-propellers (E1E2 or E3E4), or four β-propellers (E1E4))—as follows:
Human LRP6: construct E1E4-amino acids A20-Q1253 of LPR6; construct E1E2-amino acids A20-E631 of LPR6; construct E3E4 amino acids E631-Q1253 of LPR6; construct E1-amino acids A20-D325 of LPR6; construct E2-amino acids […]-E631 of LPR6; construct E4-T933-Q1253. The individual LRP6 β-propeller E3 could not be expressed.

[2] = system: Wnt1-dependent signaling; test: Wnt-dependent TOPbrite luciferase reporter assay, cells transfected with Wnt1; assay type: cell-based; conditions: cells stably transfected with reporter, transiently with Wnt1
Experimental: FIG. 12. Induction of a Wnt/β-catenin reporter in the presence or absence of wild-type and mutant inhibitors. Cells were transfected by Wnt1 (binds to LRP6 E1E2). Dkk1 and sclerostin variants, or the control inhibitor Fz8 CRD, were used at the indicated doses.
Wnt signaling was assessed either in mouse fibroblast L-cells or in HEK293s cells. The luciferase reporter assay in 293 cells was performed as described (52). The mouse fibroblast L-cell imaging assay was conducted essentially as described(53). Cells were treated with Wnt3a, Fz8 CRD ((US Patent Publication 20080299136; (54), LRP6, or Dkk1, or combinations of these proteins, as indicated and processed after an additional 6 h at 37° C./5% CO2.
To test whether the observed effects on binding between purified proteins were relevant to cellular signaling, Dkk1 and sclerostin activities were tested further in a Wnt-dependent TOPbrite luciferase reporter assay (52). Cells stably transfected with reporter were transfected transiently with Wnt1. The Wnt-transfected cells were treated with purified Dkk1 or sclerostin variants, and the effect on reporter induction was measured (FIG. 12). […] This is consistent with earlier observations that Wnt1 belongs to a class of Wnts signaling through the E1E2 portion of to LRP5/6 (11, 52). The Dkk1 and sclerostin mutants show activities consistent with their binding to LRP6 (FIG. 12). Sclerostin Ile119Glu (“NXI” motif) is impaired relative to wild-type in its ability to inhibit Wnt1-driven signaling, as is Dkk1 Ile42Glu.

Kd ([1]; steady state, read-out: affinity for LRP6 E1E2): 22 nM
Molecule: Dkk1: Dickkopf 1 protein, Wnt pathway inhibitor, expressed in insect cells (NSNAIKN)
inhibition of Wnt1-dependent signaling (reporter induction) [2]: strong inhibition

binding to LRP6 E1E2 (in words) [1]: binds
Molecule: sclerostin: Sclerostin protein, Wnt pathway inhibitor, expressed in insect cells (LPNAIGR)
inhibition of Wnt1-dependent signaling (reporter induction) [2]: strong inhibition

binding to LRP6 E1E2 (in words) [1]: affect binding
B1: Dkk1 Ile42Glu (ligand, human, UniProt O94907 32-266, looked up)
chain: TLNSVLNSNAEKNLPPPLGGAAGHPGSAVSAAPGILYPGGNKYQTIDNYQPYPCAEDEECGTDEYCASPTRGGDAGVQICLACRKRRKRCMRHAMCCPGNYCKNGICVSSDQNHFRGEIEETITESFGNDHSTLDGYSRRTTLSSKMYHTKGQEGSVCLRSSDCASGLCCARHFWSKICKPVLKEGQVCTKHRRKGSHGLEIFQRCYCGEGLSCRIQKDHHQASNSSRLHTCQRH
notes: also called Dkk1 I42E
inhibition of Wnt1-dependent signaling (reporter induction) [2]: impaired

B2: Dkk1 K211E (ligand, human, UniProt O94907 32-266, looked up)
chain: B1 chain with E11I, K180E
notes: also called Dkk1 Lys211Glu
inhibition of Wnt1-dependent signaling (reporter induction) [2]: efficiently inhibits
